Source: patent publication US7939057B2, “Methods and compositions for modulating the mobilization of stem cells” (Mount Sinai School of Medicine, priority 2006, dated 2011)

Legend:
[1] = test system: Runx2; assay: Q-PCR of Runx2 in BMNCs after G-CSF; type: in vivo; settings: bone marrow of Cgt+/+ mice after G-CSF; n=4, p<0.001
Experimental: (§1) Methods, primers and PCR conditions are available in Table S3. Briefly, total RNA was extracted from BMNC using TRIzol solution (Invitrogen, Carlsbad, Calif.). The bone carcass was then immersed in liquid nitrogen, and pulverized into powder followed by RNA extraction with TRIzol. Total RNA (1 μg) was treated with DNaseI (Invitrogen, Carlsbad, Calif.), and reverse transcribed using first strand cDNA synthesis with random primers (Promega, Madison, Wis.). Q-PCR was performed using SYBR Green (Molecular Probes) on an ABI PRISM 7900HT Sequence Detection System (Applied Biosystems, Foster city, CA). All experiments were done in triplicate and normalized to GAPDH.

[2] = test system: α1(I) collagen; assay: Q-PCR of α1(I) collagen in BMNCs after G-CSF; type: in vivo; settings: bone marrow of Cgt+/+ mice after G-CSF; n=4, p<0.05
Experimental: as §1

[3] = test system: CXCL12; assay: CXCL12 protein by ELISA in BMEF and bone extracts after G-CSF; type: in vivo, mice
Experimental: CXCL12 ELISA was done exactly as described (Petit, I., Szyper-Kravitz, M., Nagler, A., Lahav, M., Peled, A., Habler, L., Ponomaryov, T., Taichman, R. S., Arenzana-Seisdedos, F., Fujii, N., et al. (2002). G-CSF induces stem cell mobilization by decreasing bone marrow SDF-1 and up-regulating CXCR4. Nat Immunol 3, 687-694). Mouse plasma osteocalcin was measured using ELISA kit (Biomedical Technologies Inc., Stoughton, Mass.) according to manufacturer's recommendation.
BMEF was obtained by flushing two femurs with one ml of ice-cold PBS, and the supernatant was harvested after 25 strokes of gentle pipetting followed by centrifugation at 400 g for 5 min. Bone protein extraction was performed as described (Pfeilschifter, J., Laukhuf, F., Muller-Beckmann, B., Blum, W. F., Pfister, T., and Ziegler, R. (1995). Parathyroid hormone increases the concentration of insulin-like growth factor-I and transforming growth factor beta I in rat bone. J Clin Invest 96, 767-774). After extraction, the samples were dialyzed extensively against cold PBS (pH 7.4) for 72 h with a dialysis cassette of 3500 MWCO (Pierce). Volume of dialyzed extracts was measured, centrifuged at 16,000 g for 15 min at 4° C., and the supernatants stored at −80° C. CXCL12 levels in BMEF and bone extracts were determined by ELISA.

[4] = test system: CXCL12; assay: CXCL12α and CXCL12β mRNA by Q-PCR in BM and bone after G-CSF; type: in vivo, mice
Experimental: as §1

[5] = test system: rhCXCL12α; assay: Degradation of rhCXCL12α by BMEF of G-CSF-treated mice (Western blot); type: biochemical, human; settings: 24 h at 37° C.
Experimental: PBS or BMEF (35 μl) from G-CSF-treated and control mice was incubated with 50 ng of rhCXCL12α (R&D Systems) for 24 h at 37° C. The reactions were stopped by the addition of sample buffer containing protease inhibitor cocktail (Sigma) and DTT (final concentration 10 mM) followed by boiling for 5 min at 95° C. Samples were separated by electrophoresis on 16% polyacrylamide Tris-tricine gel and transferred onto PVDF membrane (0.2 μm pore size, Millipore, Bedford, Mass.). Membranes were blocked in TBS with 0.05% Tween 20 and 4% milk, incubated with 0.5 μg/ml of mouse monoclonal anti-CXCL12 antibody (clone 79018.111, R&D Systems) then with 1/20,000 dilution of horseradish peroxidase-anti-mouse IgG (Jackson Immunoresearch, West Grove, Pa.). Signal was detected with the enhanced chemiluminescence method (West Dura Extended Duration Substrate, Pierce, Rockford, Ill.).

[6] = test system: NE; assay: NE content in heart and bone after G-CSF (HPLC); type: in vivo, C57BL/6 mice
Experimental: Mice were sacrificed and hearts were rapidly removed, weighed, frozen in liquid nitrogen. Tissues were homogenized in HPLC solvent (0.1M TCA, which contains 10^−2 M sodium acetate, 10^−4 M EDTA and 10.5% methanol, pH 3.8). Hindlimb long bones were harvested, weighted, frozen in liquid nitrogen. Pooled bones were crushed using a bessman tissue pulverizer (Spectrum Laboratories) pre-chilled in a liquid nitrogen bath. Pulverized tissues were homogenized (620 mg/ml) in 0.4N HClO4 containing 0.84 mg/mL EDTA and 12.5 μL of 4% sodium pyrosulfite solution. Bone catecholamines were extracted using solid Al203 and then desorbed from the Al203 using 0.1 N acetic acid. NE levels were determined by HPLC at the Neurochemistry Core Lab, Vanderbilt University's Center for Molecular Neuroscience Research (Nashville, Tenn.).

[7] = test system: bone lining osteoblasts; assay: Morphology of bone lining osteoblasts (CD44 immunofluorescence); type: in vivo; settings: G-CSF-treated wild-type C57BL/6 mice
Experimental: For the morphology of bone lining osteoblasts, femoral bones were fixed overnight in formalin, decalcified in 10% EDTA (pH 7.4) for 48 h, snap-frozen in isopentane chilled in liquid nitrogen, and sectioned at 10 μm thickness. Sections were fixed with 4% parafolmaldehyde for 20 min, stained with anti-CD44 (KM201) followed by donkey Alexa-488-anti-rat IgG (Molecular Probes, Eugene, Oreg.), and mounted in Vectashield Mounting Medium with DAPI (Vector Laboratories). TUNEL assay was done using an In Situ Cell Death Detection Kit (Roche Applied Science, Penzberg, Germany) according to manufacturer's recommendation. Images were captured and analyzed with Olympus BX61WI (Hauppauge, N.Y.) with 60× objective mounted on a motorized X, Y stage and a Z focusing drive (Applied Scientific Instrumentation, Eugene, Oreg.). Images are collected with Coolsnap HQ digital camera (Ropert Scientific, Munich, Germany). A Dell workstation with SlideBook software (Intelligent Imaging Innovations, Denver, Colo.) provided for synchronization of components, data acquisition and image deconvolution.

B1: G-CSF: recombinant human G-CSF (Filgrastim, Amgen), hematopoietic cytokine used to elicit HSPC mobilization (protein, UniProt P09919 31-207, looked up)
Granulocyte …: TPLGPASSLPQSFLLKCLEQVRKIQGDGAALQEKLVSECATYKLCHPEELVLLGHSLGIPWAPLSSCPSQALQLAGCLSQLHSGLFLYQGLLQALEGISPELGPTLDTLQLDVADFATTIWQQMEELGMAPALQPTQGAMPAFASAFQRRAGGVLVASHLQSFLEVSYRVLRHLAQP
modifications: filgrastim
notes: recombinant human G-CSF (Filgrastim, Amgen), hematopoietic cytokine used to elicit HSPC mobilization
levels of Runx2, reduction [1]: 65% | α1(I) collagen, reduction [2]: 92% | CXCL12 protein in BMEF ([3]; Cgt+/+ and +/− mice after G-CSF injection): greatly reduced | CXCL12 protein in BMEF ([3]; Cgt−/− mice after G-CSF): significantly reduced | CXCL12 protein levels in bone ([3]; Cgt−/− mice following G-CSF): no reduction | CXCL12 in bone protein extracts ([3]; Dbh+/− mice following G-CSF): reduced | CXCL12 levels in bone protein extracts ([3]; Dbh−/− animals following G-CSF): maintained | CXCL12 protein in bone ([3]; normal littermate mice following G-CSF): decreased | CXCL12 mRNA levels in bone ([4]; after G-CSF treatment, p<0.05 for CXCL12α, p=0.06 for CXCL12β): moderately decreased | mRNA expression of both CXCL12 isoforms in BM ([4]; after G-CSF, Cgt−/− and normal littermates): profoundly decreased | degradation of recombinant CXCL12 by BMEF ([5]; BMEF from G-CSF-treated Cgt+/+ mice): completely degraded | degradation of recombinant CXCL12 by BMEF ([5]; BMEF from G-CSF-treated Cgt−/− mice): complete degradation | bone NE levels ([6]; 3 h after G-CSF administration (250 μg/kg s.c.)): dramatic reduction | cardiac NE levels ([6]; single dose of G-CSF (250 μg/kg s.c.)): slightly reduced | appearance of bone-lining osteoblasts [7]: flattened appearance with shorter projections
